Experimental data as given in the supplement of paper PMC6755084.

B1: F1*; the commonest letter at each place (parent)
chain: GAGACCGCAACTGAAAAGTTGTTATCACTTGTCGTAAGACACTTTGGATGGGTTGAAGTTCTGCACGTAGAAGCAAAAGGC

Variants of: B1
Experiment: fraction ligated after 30 min (ligated reads / total reads); higher = more ligase activity
Details: with F1*sub RNA substrate (template-directed ligation), 42 °C
Procedure, shortened: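 The ligase ribozyme variants were produced by PCR amplification of oligo-pool templates, T7 transcription and purification on gel. Their ligated and unligated forms were gel-separated, then reverse transcribed with barcoded primers before MiSeq sequencing. Core bases were filtered at a quality of ≥20, and fraction ligated per variant was ligated reads over total reads.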

Variant	fraction ligated
G34A A56T	0.819
G34A A56G	0.775
G34A A56C	0.804
G34T C40T	0.809
G34T C40G	0.811
G34T C40A	0.802
C33G A48G	0.793
C33G A48C	0.727
C33G A48T	0.0603
G34A A39C	0.8
G34A A39T	0.818
G34A A39G	0.835
G34C G38T	0.811
G34C G38A	0.813
G34C G38C	0.818
C33T C42G	0.857
C33T C42T	0.86
C33T C42A	0.842
C33G T49A	0.596
C33G T49C	0.312
C33G T49G	0.706
C33T G38A	0.857
C33T G38T	0.847
C33T G38C	0.835

Variant	fraction ligated
C33T	0.869
T35A G38A	0.863
T35A G38C	0.855
T35A G38T	0.855
G34C T35G	0.829
G34C T35C	0.835
G34C T35A	0.815
G34A A41T	0.811
G34A A41C	0.76
G34A A41G	0.81
T35A A36T	0.85
T35A A36C	0.865
T35A A36G	0.857
G34C G50C	0.329
G34C G50T	0.733
G34C G50A	0.17
C33T T44G	0.815
C33T T44A	0.844
C33T T44C	0.855
G34C A37T	0.839
G34C A37G	0.845
G34C A37C	0.806
T35A A57T	0.809
T35A A57G	0.847

Variant	fraction ligated
T35A A57C	0.82
C33G G47T	0.409
C33G G47C	0.108
C33G G47A	0.791
T35A A48C	0.752
T35A A48T	0.8
T35A A48G	0.801
G34C A36G	0.824
G34C A36C	0.834
G34C A36T	0.832
C33G T45C	0.273
C33G T45A	0.689
C33G T45G	0.0204
G34T T44C	0.811
G34T T44A	0.792
G34T T44G	0.842
G34A C40T	0.81
G34A C40G	0.833
G34A C40A	0.817
G34A G47A	0.805
G34A G47T	0.373
G34A G47C	0.239
C33T A36C	0.843
C33T A36G	0.854

Variant	fraction ligated
C33T A36T	0.88
G34A T44C	0.825
G34A T44G	0.844
G34A T44A	0.842
C33G G34T	0.856
C33G G34A	0.829
C33G G34C	0.843
T35A G50A	0.638
T35A G50T	0.792
T35A G50C	0.474
G34C A56C	0.779
G34C A56G	0.794
G34C A56T	0.812
T35A A39C	0.828
T35A A39T	0.838
T35A A39G	0.851
C33T T43G	0.78
C33T T43A	0.831
C33T T43C	0.822
G34A T35C	0.835
G34A T35G	0.855
G34A T35A	0.848
G34A G50A	0.625
G34A G50C	0.43

Variant	fraction ligated
G34A G50T	0.778
C33T A48T	0.452
C33T A48C	0.789
C33T A48G	0.814
G34A G55T	0.811
G34A G55A	0.84
G34A G55C	0.801
C33T G46T	0.791
C33T G46A	0.831
C33T G46C	0.807
C33T T35C	0.869
C33T T35G	0.854
C33T T35A	0.879
G34T G46C	0.778
G34T G46T	0.763
G34T G46A	0.823
C33G T43A	0.814
C33G T43C	0.812
C33G T43G	0.807
T35A C40A	0.811
T35A C40G	0.834
T35A C40T	0.834
C33G G55C	0.643
C33G G55A	0.839

Variant	fraction ligated
C33G G55T	0.777
G34T T45A	0.794
G34T T45C	0.757
G34T T45G	0.385
G34A A36C	0.83
G34A A36G	0.846
G34A A36T	0.843
C33G G50A	0.253
C33G G50C	0.114
C33G G50T	0.545
G34C C42G	0.84
G34C C42T	0.849
G34C C42A	0.852
T35A	0.836
C33T G55C	0.82
C33T G55A	0.859
C33T G55T	0.839
C33T A57G	0.861
C33T A57C	0.841
C33T A57T	0.842
T35A T44G	0.821
T35A T44A	0.838
T35A T44C	0.826
G34A A57C	0.791

Variant	fraction ligated
G34A A57T	0.822
G34A A57G	0.835
G34T G38C	0.83
G34T G38A	0.836
G34T G38T	0.82
G34C A57T	0.769
G34C A57C	0.817
G34C A57G	0.854
C33T A37T	0.854
C33T A37C	0.868
C33T A37G	0.878
C33T A41T	0.808
C33T A41G	0.8
C33T A41C	0.789
C33G G46T	0.811
C33G G46C	0.779
C33G G46A	0.811
G34C T43C	0.78
G34C T43A	0.843
G34C T43G	0.809
G34T A41G	0.768
G34T A41C	0.755
G34T A41T	0.763
